Experimental data: US20220289854A1

Target: mouse CX3CR1 (mouse)
Assay: flow cytometry titration on Jurkat cells transfected with mCX3CR1; goat anti-mIgG PE

EC50: 0.102 µg/mL
B1: 455.1C11 anti-mouse CX3CR1 monoclonal antibody (antibody, V domains shown)
VH: QVQLVETGGGLVRPGNSLKLSCVTSGFTFSNYRMHWLRQFPGKRLEWIAVIAFKSDKFGANYAESVKGRFAISRDDSKNSVYLEMSRLREEDTATYFCSRDGNGPFDYWGQGTTLTVSS
VL: DIVMSQSPSSLTVSVGEKVTMSCKSSQSLLYSGNQKSYLAWYQQKPGQSPRLLIYWASTRESGVPDRFTGSGSGTDFTLTISGVKAEDLAVYYCQRYYGYPRTFGGGTKLEIK
